According to patent publication US20220096653A1, “CONJUGATE COMPRISING LIGAND AND CEACAM5 ANTIBODY FAB FRAGMENT” (ASTELLAS PHARMA INC., priority 2019, published 2022):

T1: CEACAM5 (R&D Systems, 4128-CM-050) (human, UniProt P06731 35-685)
T1 construct: Immobilised on the ELISA plate; also called human CEACAM5
T1 sequence (looked up): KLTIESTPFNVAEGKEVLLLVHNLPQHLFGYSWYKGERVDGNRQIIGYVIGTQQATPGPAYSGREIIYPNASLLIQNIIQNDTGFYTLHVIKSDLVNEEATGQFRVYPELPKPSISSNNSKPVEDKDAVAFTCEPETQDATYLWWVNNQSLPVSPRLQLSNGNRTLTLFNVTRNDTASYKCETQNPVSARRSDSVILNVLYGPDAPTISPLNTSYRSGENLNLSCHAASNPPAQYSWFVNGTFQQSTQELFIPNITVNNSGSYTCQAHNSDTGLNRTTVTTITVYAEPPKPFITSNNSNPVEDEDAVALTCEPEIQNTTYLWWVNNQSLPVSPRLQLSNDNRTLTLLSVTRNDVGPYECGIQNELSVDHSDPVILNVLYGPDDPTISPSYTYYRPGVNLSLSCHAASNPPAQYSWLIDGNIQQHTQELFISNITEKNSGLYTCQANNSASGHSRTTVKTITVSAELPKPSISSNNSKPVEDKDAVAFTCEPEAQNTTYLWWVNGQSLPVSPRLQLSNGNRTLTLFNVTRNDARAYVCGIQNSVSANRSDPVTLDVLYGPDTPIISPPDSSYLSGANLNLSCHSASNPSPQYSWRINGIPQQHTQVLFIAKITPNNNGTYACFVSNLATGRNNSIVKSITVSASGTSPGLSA

B1: (Y-S1-X)p-Fab^2 with Y Gd/DOT[A], S1 - (bond), X -Gly-Ile-NH-(CH2)2-Z1(#N)- (Fab, V domains shown)
VH: EVQLVESGGGLVQPGGSLRLSCAASGFNIRDTYMHWVRQAPGKGLEWVARIDPANGNSRYVPKFQGRFTISADTSRNTAYLQMNSLRAEDTAVYYCAPFGYYVSDYAMAYWGQGTLVTVSS
VL: DIQLTQSPSSLSASVGDRVTITCRAGESVDIFGVGFLHWYQQKPGKAPKLLIYRASNLESGIPSRFSGSGSRTDFTLTISSLQPEDFATYYCQQTNEDPYTFGQGTKVEIKR
modifications: labeling may sit on this chain; sites not stated; labeling portion (MW 852) on amino groups of the Fab, sites and chain not stated; 1-3 per Fab by MS
notes: also called Ex-No 3; conjugate 3
B2: [Gd/4arm-DOTA-CH2-(1,4-Ph)-NH-C(═S)]p-Fab^2 (Fab, V domains shown)
VH: B1 VH
VL: B1 VL
modifications: labeling may sit on this chain; sites not stated; labeling portion (MW 706) on amino groups of the Fab, sites and chain not stated; 1 per Fab by MS
notes: also called Ex-No 48; conjugate 48
B3: (Y-S1-X)p-Fab^2 with Y Gd/4arm-DOTA, S1 spacer (o), X -Met-Gly-Lys*-Z2(#N)- (Fab, V domains shown)
VH: B1 VH
VL: B1 VL
modifications: labeling may sit on this chain; sites not stated; labeling portion (MW 1304) on amino groups of the Fab, sites and chain not stated; 1-2 per Fab by MS
notes: also called Ex-No 59; conjugate 59
B4: (Y-S1-X)p-Fab^2 with Y DFO, S1 -C(═O)-(1,3-Ph)-C(═O)-, X -Gly-Lys*Z2(#S)- (Fab, V domains shown)
VH: B1 VH
VL: B1 VL
modifications: labeling may sit on this chain; sites not stated; labeling portion (MW 1076) on amino groups of the Fab, sites and chain not stated; 1-3 per Fab by MS
notes: No metal; also called Ex-No 64; conjugate 64
B5: (Y-S1-X)p-Fab^2 with Y Gd/DOTA, S1 spacer (k), X -Met-Gly-Lys*-Z2(#N)- (Fab, V domains shown)
VH: B1 VH
VL: B1 VL
modifications: labeling may sit on this chain; sites not stated; labeling portion (MW 1296) on amino groups of the Fab, sites and chain not stated; 1-2 per Fab by MS
notes: also called Ex-No 46; conjugate 46
B6: (Y-S1-X)p-Fab^2 with Y Gd/4arm-DOTA, S1 -CH2-(1,4-Ph)-NH-C(═S)-, X -Gly-(naph-Ala)-Lys*-Z2(#N)- (Fab, V domains shown)
VH: B1 VH
VL: B1 VL
modifications: labeling may sit on this chain; sites not stated; labeling portion (MW 1187) on amino groups of the Fab, sites and chain not stated; 1-2 per Fab by MS
notes: also called Ex-No 55; conjugate 55
B7: (Y-S1-X)p-Fab^2 with Y Gd/DOTA, S1 - (bond), X -Gly-Lys*-C(═S)-NH-(1,4-Ph)-NH-C(═S)- (Fab, V domains shown)
VH: B1 VH
VL: B1 VL
modifications: labeling may sit on this chain; sites not stated; labeling portion (MW 937) on amino groups of the Fab, sites and chain not stated; 1-2 per Fab by MS
notes: also called Ex-No 1; conjugate 1
B8: (Y-S1-X)p-Fab^2 with Y Gd/4arm-DOTA, S1 -CH2-(1,4-Ph)-NH-C(═S)-, X -Gly-Tyr-Lys*-Z2(#N)- (Fab, V domains shown)
VH: B1 VH
VL: B1 VL
modifications: labeling may sit on this chain; sites not stated; labeling portion (MW 1153) on amino groups of the Fab, sites and chain not stated; 1-2 per Fab by MS
notes: also called Ex-No 56; conjugate 56
B9: (Y-S1-X)p-Fab^2 with Y Gd/DOTA, S1 - (bond), X -Gly-Lys*-Z2(#S)- (Fab, V domains shown)
VH: B1 VH
VL: B1 VL
modifications: labeling may sit on this chain; sites not stated; labeling portion (MW 926) on amino groups of the Fab, sites and chain not stated; 1-2 per Fab by MS
notes: also called Ex-No 5; conjugate 5
B10: (Y-S1-X)p-Fab^2 with Y Gd/DOTA, S1 -NH-(CH2CH2O)3-CH-C(═O)-NH-CH2-(1,3-Ph)-C(═O)-, X -Gly-Lys*-C(═S)-NH-(1,4-Ph)-NH-C(═S)- (Fab, V domains shown)
VH: B1 VH
VL: B1 VL
modifications: labeling may sit on this chain; sites not stated; labeling portion (MW 1259) on amino groups of the Fab, sites and chain not stated; 1-3 per Fab by MS
notes: also called Ex-No 44; conjugate 44
B11: (Y-S1-X)p-Fab^2 with Y Gd/DOTA, S1 - (bond), X -Gly-Val-NH-(CH2)2-Z1(#N)- (Fab, V domains shown)
VH: B1 VH
VL: B1 VL
modifications: labeling may sit on this chain; sites not stated; labeling portion (MW 838) on amino groups of the Fab, sites and chain not stated; 1-2 per Fab by MS
notes: also called Ex-No 2; conjugate 2
B12: [DFO-C(═O)-(CH2CH2O)4-(1,3-Ph)-C(═O)-Gly-Lys*-Z2(#S)]p-Fab^2 (Fab, V domains shown)
VH: B1 VH
VL: B1 VL
modifications: labeling may sit on this chain; sites not stated; labeling portion (MW 1252) bound via 2-iminothiolane-treated amino groups of the Fab, sites and chain not stated; 1-2 per Fab by MS
notes: No metal; also called Ex-No 61; Conjugate No. 61
B13: (Y-S1-X)p-Fab^2 with Y Gd/4arm-DOTA, S1 -CH2-(1,4-Ph)-NH-C(═S)-, X -Met-Gly-Lys*-Z2(#N)- (Fab, V domains shown)
VH: B1 VH
VL: B1 VL
modifications: labeling may sit on this chain; sites not stated; labeling portion (MW 1121) on amino groups of the Fab, sites and chain not stated; 1 per Fab by MS
notes: also called Ex-No 54; conjugate 54
B14: [DFO-C(═O)-CH2O-(1,3-Ph)-C(═O)-Gly-Tyr*-CH2-C(═O)-NH-(CH2)2-Z1(#S)]p-Fab^2 (Fab, V domains shown)
VH: B1 VH
VL: B1 VL
modifications: labeling may sit on this chain; sites not stated; labeling portion (MW 1241) bound via 2-iminothiolane-treated amino groups of the Fab, sites and chain not stated; 1 per Fab by MS; free thiols capped with 2-iodoacetamide
notes: No metal; also called Ex-No 60; Conjugate No. 60

These binders were tested against T1, CEACAM5 (R&D Systems, 4128-CM-050) (assay: ELISA on immobilised CEACAM5, 4-parameter fit, duplicate).
Procedure: Each anti-human CEACAM5 antibody Fab fragment conjugate prepared in Example 2 was subjected to ELISA to evaluate the binding activity thereof to CEACAM5. In the present test, a phosphate buffer (Nacalai Tesque Inc., 0.1 mol/L-Phosphate Buffer Solution (pH 7.2)) prepared to 10 mM by diluting 10-fold with distilled water was used as a solvent for an antigen immobilization liquid, and 20×PBS/Tween 20 Buffer (Thermo Fisher Scientific Inc., 28352) diluted 20-fold with distilled water was used as a wash liquid. In addition, for bovine serum albumin (BSA) used in the present test, 30% Bovine Serum Albumin solution (Sigma-Aldrich, Inc., A9576-50ML) was added in an appropriate proportion for use. CEACAM5 (R&D Systems, 4128-CM-050) was diluted with a 10 mM phosphate buffer (pH 7.2) to 0.1 μg/mL, and added to a Nunc MaxiSorp White 384 plate (Nunc, 4603272) at 30 μL per well, and the plate was incubated overnight at 4° C. for immobilization. The CEACAM5 immobilization liquid was removed by reverse centrifugation, and then blocking was carried out by adding a PBS/Tween 20 buffer containing 5.0% BSA. Thereafter, the blocking solution was removed by reverse centrifugation, a solution of each CEACAM5 antibody Fab² fragment conjugate described above or a Fab² fragment having no labeling portion (PB009-01) as a control at about 10000 ng/mL was diluted in 14 steps by 3-fold dilution using a PBS/Tween 20 buffer containing 1.0% BSA, and 30 μL was added per well and incubated at room temperature for 60 minutes. The plate was washed 3 times with a PBS/Tween 20 buffer, and Horseradish Peroxidase (HRP)-labeled goat anti-human IgG (H+L chain) antibody (MBL Life Sciences, 206) diluted 1000-fold using a PBS/Tween 20 buffer containing 5.0% BSA was added at 30 μL per well and incubated at room temperature for 30 minutes. The plate was washed 3 times with a PBS/Tween 20 buffer, and ECL Prime Western Blotting DETECTION Reagent (GE Healthcare, RPN2232) as a substrate was added at 30 μL per well. The substrate was incubated at room temperature for 15 minutes, and then a signal value thereof was measured using an Envision counter (PerkinElmer, Inc.).
The test for each antibody was carried out in duplicate, and an EC₅₀ value was calculated using a 4-parameter logistic curve model.

Row | EC50 | Binder
1 | 0.13 nM | B1
2 | 0.21 nM | B2
3 | 0.3 nM | B3
4 | 0.2 nM | B4
5 | 0.22 nM | B5
6 | 0.26 nM | B6
7 | 0.16 nM | B7
8 | 0.26 nM | B8
9 | 0.14 nM | B9
10 | 0.29 nM | B10
11 | 0.14 nM | B11
12 | 0.18 nM | B12
13 | 0.23 nM | B13
14 | 0.18 nM | B14
